Molecular target: αVβ1/3/5 integrins located in the cardiomyocyte cell membrane
Assay: cell-based or functional assay

Recombinant periostin, purified from HEK293 cells expressing the full-length human cDNA (from UniProt Q15063 22-836) (ligand)
half-maximal stimulation of DNA synthesis in primary neonatal rat ventricular cardiomyocytes (BrdU uptake): 155 nM

Reference: patent US20100166827A1
